# Reference: publication PMC10516654, “Structural and functional characterization of MrpR, the master repressor of the Bacillus subtilis prophage SPβ”
# T1: MrpR (Bacillus subtilis prophage SPβ, UniProt O34558 1-325)
# T1 sequence: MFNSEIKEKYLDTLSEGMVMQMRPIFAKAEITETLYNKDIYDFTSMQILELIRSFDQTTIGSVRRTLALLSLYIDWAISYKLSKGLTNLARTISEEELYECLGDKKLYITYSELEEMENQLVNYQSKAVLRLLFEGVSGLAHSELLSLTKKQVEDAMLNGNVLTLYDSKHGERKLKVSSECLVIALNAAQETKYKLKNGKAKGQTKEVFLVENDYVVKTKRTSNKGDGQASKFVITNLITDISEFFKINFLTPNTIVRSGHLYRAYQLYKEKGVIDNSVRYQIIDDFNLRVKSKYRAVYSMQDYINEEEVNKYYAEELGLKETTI
# B1: aimR promoter ITC duplex (LC292/LC293) (dsDNA)
# DNA 1: GAATTTTAAAGAGATTACAAATACAAAAAATATGTATAAAATAATTGACTCGTAATG
# DNA 2: CATTACGAGTCAATTATTTTATACATATTTTTTGTATTTGTAATCTCTTTAAAATTC
# Target: T1, MrpR
# Assay: ITC; ITC: 20 mM HEPES-Na pH 7.5, 200 mM NaCl, 20 mM KCl, 25 C, 20 uM DNA in cell, protein in syringe, one set of sites; EMSA: same buffer plus 50 ug/ml herring sperm DNA, 50 nM DNA, RT 15 min, 6% native PAGE 0.5x TBE
# Details: protein: recombinant; tags: C-terminal His6; blunt
binder,measurement,value
B1,Kd,238 ± 80 nM
